{"source": "paper PMC8145141", "about": "“Characterization of a Dye-Decolorizing Peroxidase from Irpex lacteus Expressed in Escherichia coli: An Enzyme with Wide Substrate Specificity Able to Transform Lignosulfonates” (Journal of Fungi, 2021)", "key": {"purified protein [1]": {"substrate": "Nc1c(N=Nc2ccc(S(=O)(=O)CCOS(=O)(=O)O)cc2)c(S(=O)(=O)O)cc2cc(S(=O)(=O)O)c(N=Nc3ccc(S(=O)(=O)CCOS(=O)(=O)O)cc3)c(O)c12", "assay": "purified protein", "assay_type": "biochemical, Irpex lacteus", "conditions": "0.4 mM H2O2, pH 3.0, 25 °C"}, "purified protein [2]": {"substrate": "CCn1c(=NN=c2sc3cc(S(=O)(=O)O)ccc3n2CC)sc2cc(S(=O)(=O)O)ccc21", "assay": "purified protein", "assay_type": "biochemical, Irpex lacteus", "conditions": "0.4 mM H2O2, pH 3.0, 25 °C"}}, "data": [{"protein": "IrlacDyP (recombinant Irpex lacteus DyP) (Irpex lacteus) (protein, mature form, signal peptide removed, 447 residues; about 50 kDa, non-glycosylated) SAGNDSLPFENIQGDILVGMKKDKEKFVFFHINNATTFKSFLKTYAPANITSVQTIIGPASGQPQAFVNLAFSHTGFGALGVADDLQDTAFTAGQFADAPSFGDDTSTWEEAFKGTNVDGVFLIGSDDVTTTNQYRDDLKAKLGDAWTVLLDLDSAARPGAEKGHEHFGYLDGISNPTIPGFGTPFPGQAVVDSGVIFAGRTNDPVTNRPSWALDGSFLVFRKLKQLVPEFHKWTLDNALQNQAGNLTVEEGALLLGSRMFGRWNSGAPIDLTPDVDDPTLGSDPQRNNDFNYIHPGEDLTTDETRCPFTAHVRKANPRDLEAQGLIPDLFHAIRAGTPYGPEVTDAESNSNTTSIDRGLAFVEYQSVISNGFRFQQLNWANNANFPFNKSEPLGLDPVIGQGTRQTFGLDPRNASDSLTIPQIIISNGGEYFFSPSITALVEHFGA", "values": [{"measurement": "Km", "setting": "purified protein [1]", "result": "11.9 ± 2.1", "unit": "µM"}, {"measurement": "kcat/Km", "setting": "purified protein [1]", "result": "6.5e+06 ± 1e+06", "unit": "M⁻¹ s⁻¹"}, {"measurement": "Km", "setting": "purified protein [2]", "result": "1.5 ± 0.2", "unit": "µM"}, {"measurement": "kcat", "setting": "purified protein [2]", "result": "49.8 ± 1.3", "unit": "s⁻¹"}, {"measurement": "kcat/Km", "setting": "purified protein [2]", "result": "3.3e+07 ± 4e+06", "unit": "M⁻¹ s⁻¹"}]}]}
